This is an account of results in US20150306181A1 (BOARD OF REGENTS OF THE UNIVERSITY OF NEBRASKA, published 2015).

Assay [1] addresses T1, mouse leptin receptor-Fc chimera (mouse; human, UniProt P48356 22-839).
T1 construct: extracellular domain; Bought from R&D Systems; Captured on a protein G sensor chip through its Fc; also called ObR-Fc; chimera leptin receptor; not shown: human Fc fragment, printed as 'human protein G Fc fragment'
T1 sequence (looked up): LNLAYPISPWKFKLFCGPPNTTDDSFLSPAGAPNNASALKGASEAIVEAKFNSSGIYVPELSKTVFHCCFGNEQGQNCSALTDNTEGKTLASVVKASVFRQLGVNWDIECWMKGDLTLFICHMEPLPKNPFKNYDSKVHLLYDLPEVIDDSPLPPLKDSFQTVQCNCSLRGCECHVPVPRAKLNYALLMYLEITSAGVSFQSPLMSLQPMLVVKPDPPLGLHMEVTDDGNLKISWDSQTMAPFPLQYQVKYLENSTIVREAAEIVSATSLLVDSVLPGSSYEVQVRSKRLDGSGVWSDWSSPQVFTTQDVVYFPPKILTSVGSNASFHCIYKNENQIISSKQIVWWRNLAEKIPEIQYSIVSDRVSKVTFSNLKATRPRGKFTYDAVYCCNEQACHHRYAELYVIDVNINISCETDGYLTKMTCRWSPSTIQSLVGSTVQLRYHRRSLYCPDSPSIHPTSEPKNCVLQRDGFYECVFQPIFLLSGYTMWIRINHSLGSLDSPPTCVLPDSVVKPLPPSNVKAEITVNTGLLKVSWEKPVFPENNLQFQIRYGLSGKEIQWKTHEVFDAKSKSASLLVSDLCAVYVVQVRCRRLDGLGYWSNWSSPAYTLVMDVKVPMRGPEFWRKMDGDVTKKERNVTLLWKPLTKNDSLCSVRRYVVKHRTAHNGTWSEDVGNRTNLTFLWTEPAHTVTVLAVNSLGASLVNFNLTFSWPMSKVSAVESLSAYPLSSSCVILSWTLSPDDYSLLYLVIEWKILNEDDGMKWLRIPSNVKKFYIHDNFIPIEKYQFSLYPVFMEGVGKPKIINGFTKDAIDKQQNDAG
Put plainly: SPR, ObR-Fc captured on protein G chip, 1:1 model; leptin in 1:1 mixture with free Pluronic P85; leptin mixed with free P85. How it is done:
(§1) The binding affinity of leptin and its analogs was measured by surface plasma resonance (SPR) in Biacore® 3000 instrument (GE Healthcare, Piscataway, N.J.), using a method reported for leptin (Mistrik et al. (2004) Anal. Biochem., 327:271-7). Carboxymethyl dextran chip (CMS), N-hydroxysuccinimide (NHS), 1-ethyl-3-(3-dimethylaminopropyl) carbodiimide (EDC), ethanolamine-HCl, HBS-EP buffer (10 mM HEPES, 150 mM NaCl, 3 mM EDTA, 0.005% surfactant P20, pH 7.4) and protein G were all purchased from GE Healthcare. […] CMS surface response was recorded by first, immobilization of ObR-Fc (0.5 μg/mL, 15 μL in HBS-EP, 5 μL/min flow rate) in channel A following 1800 s washing (to capture 100-300 RU of ObR-Fc); second, capture of leptin or leptin-Pluronic® conjugates (0-300 nM, 100 μL in HBS-EP, flow rate 20 μL/min) and dissociation (900 s) in channel A (ObR-Fc surface) and B (protein G surface); third, regeneration of a fully active protein G surface by 5 μL glycine (10 mM, pH 2.0). […]
(§2) TABLE 3 Kinetic constants for leptin and leptin-P85 conjugates and leptin receptor interaction. The association and dissociation rate constants kₐ and kd were determined as global fitting parameters for a 1:1 binding model. […] The equilibrium dissociation constant KD was determined as kd/kₐ. […]

Assay [2] has as its target T1, mouse leptin receptor-Fc chimera. Put plainly: SPR, ObR-Fc captured on protein G chip, 1:1 model; leptin in 1:1 mixture with free Pluronic P85. How it is done:
as §1, §2

Assay [3] has the same target. Briefly: SPR, ObR-Fc captured on protein G chip; leptin in 1:1 mixture with free Pluronic P85. From the text: Next, the binding of the leptin-Pluronic® conjugates with the chimera leptin receptor (ObR-Fc) was studied. ObR-Fc contains the human […] Fc fragment and the mouse ObR N-terminus that shares the same sequence as the extracellular domains of the putative leptin transporter at the BBB (ObRa) and the leptin receptor (ObRb) expressed in the brain. The Fc fragment of ObR-Fc was used to reversibly bind to protein G that was pre-immobilized onto the sensor chip. The ObR N-terminus of ObR-Fc adsorbed onto the sensor chip was used for sample detection. The SPR association and dissociation profiles were recorded for native leptin, a mixture of leptin and P85, Lep-(ss)-P85(1), Lep-(ss)-P85(2.1), Lep-(ss)-P85(2.3) (fractions purified by HIC and collected at 33 min) and Lep-(nc)-P85(2) (FIG. 8 and Table 3). […] The KD values for the N-terminal modified Lep-(nc)-P85(2), which also had low modification degree, were similar to those observed for Lep-(ss)-P85(2.1) without HIC purification.

Assay [4] has the same target. Put plainly: SPR (Biacore 3000), ObR-Fc captured on protein G chip, 1:1 model, KD = kd/ka. The method, then: as §1, §2
Assay [5] has the same target. Put plainly: SPR, ObR-Fc captured on protein G CM5 chip, 1:1 model (Example 3). How it is done:
[…] Binding affinity of leptin or leptin-POx with leptin receptor was determined by surface plasma resonance (SPR). Protein G was immobilized on CM5 sensor chip using following procedure: 1) inject 115 μL NHS/EDC mixed solution (1:1, v/v) to activate dextran surface; 2) inject 60 μL protein G (200 μg/mL in 10 mM sodium acetate buffer, pH 4.0) to bind with the activated sensor surface; 3) inject 75 μL of 1 M ethanolamine hydrochloride, pH 8.5 to deactivate NHS-ester and remove non-specifically bound protein. […] The sensorgram in channel A was corrected by non-specific surface binding (sensorgram in channel B) and baseline draft (sensorgram of HBS-EP buffer injection in channel A) and then fitted with a 1:1 binding model as provided by BIA evaluation software. The rate constant kₐ and kd, and equilibrium association constant (KA) and dissociation constant (KD) are determined.

Assay [6] has the same target. Put plainly: SPR (Biacore 3000), ObR-Fc captured on protein G chip, 1:1 model. The method, then:
The binding affinity of leptin and its analogs was measured by surface plasma resonance (SPR) in Biacore® 3000 instrument (GE Healthcare, Piscataway, N.J.), using a method reported for leptin (Mistrik et al. (2004) Anal. Biochem., 327:271-7). Carboxymethyl dextran chip (CMS), N-hydroxysuccinimide (NHS), 1-ethyl-3-(3-dimethylaminopropyl) carbodiimide (EDC), ethanolamine-HCl, HBS-EP buffer (10 mM HEPES, 150 mM NaCl, 3 mM EDTA, 0.005% surfactant P20, pH 7.4) and protein G were all purchased from GE Healthcare. To prepare the sensor chip, protein G was immobilized on CMS (Channel A and B) by consequent injection of 1) 115 μL NHS/EDC (1:1, v/v) (to activate dextran surface); 2) 60 μL protein G (200 μg/mL, 10 mM sodium acetate buffer, pH 4.0) (to bound the surface at 2000-3000 resonance units (RU)), and 3) 75 μl of 1 M ethanolamine hydrochloride, pH 8.5 (to deactivate NHS-ester and remove electrostatically bound protein). CMS surface response was recorded by first, immobilization of ObR-Fc (0.5 μg/mL, 15 μL in HBS-EP, 5 μL/min flow rate) in channel A following 1800 s washing (to capture 100-300 RU of ObR-Fc); second, capture of leptin or leptin-Pluronic® conjugates (0-300 nM, 100 μL in HBS-EP, flow rate 20 μL/min) and dissociation (900 s) in channel A (ObR-Fc surface) and B (protein G surface); third, regeneration of a fully active protein G surface by 5 μL glycine (10 mM, pH 2.0). The data (sensorgrams in channel A) were corrected by non-specific protein G surface binding (sensorgrams in channel B) and baseline draft (sensorgrams of HBS-EP injection in channel A) which might occur due to a slow dissociation of between ObR-Fc and protein G and then fitted to a 1:1 binding model using BIA evaluation software.
TABLE 3 Kinetic constants for leptin and leptin-P85 conjugates and leptin receptor interaction. The association and dissociation rate constants kₐ and kd were determined as global fitting parameters for a 1:1 binding model. The kinetics of the interaction with leptin, the mixture of leptin and P85, Lep-(ss)-P85(1) and its reduced form, Lep-(ss)-P85(2.1) and its reduced form, Lep-(nc)-P85(2) and purified Lep-(ss)-P85(2.3) from HIC, 33 min were analyzed. The equilibrium dissociation constant KD was determined as kd/kₐ. Numbers represent averaged values from three independent measurements on the same ObR-Fc surface.

B1: Mouse leptin (ligand, UniProt P41160 22-167, looked up)
chain: VPIQKVQDDTKTLIKTIVTRINDISHTQSVSAKQRVTGLDFIPGLHPILSLSKMDQTLAVYQQVLTSLPSQNVLQIANDLENLRDLLHLLAFSKSCSLPQTSGLQKPESLDGVLEASLYSTEVVALSRLQGSLQDILQQLDVSPEC
notes: Also tested as a non-covalent 1:1 mixture with free Pluronic P85 ('Leptin + P85'); Those rows use this molecule and name the mixture under assay; The preparation held monomer and dimer on SDS-PAGE; also called native leptin; mu-leptin
For the molecule B1, the Kd worked out at 0.337 nM in assay [1], 0.1 nM in assay [4] and 0.96 nM in assay [5]. The koff in assay [2] came out at 0.000368 s⁻¹; in assay [5], 0.00051 s⁻¹; in assay [6], 0.000208 s⁻¹. Also, the results for the kon in assay [2], in assay [5] and in assay [6] were 1.09e+06 M⁻¹ s⁻¹, 530000 M⁻¹ s⁻¹ and 2.09e+06 M⁻¹ s⁻¹, respectively. The “fold decrease of binding affinity against native leptin alone” value in assay [3] was approximately 3 fold. This molecule also showed a Ka in assay [5] of 1.1e+09 M⁻¹.

B2: Lep-(ss)-P85(1) reduced (ligand, mouse, UniProt P41160 22-167, looked up)
chain: B1 chain
modifications: Pluronic P85 chains on lysine amino groups through the DSP linker, partly cleaved by 6 mM L-glutathione; a linker remainder is left on cleaved sites
notes: Lep-(ss)-P85(1) dialysed against 6 mM L-glutathione in PBS with 20% ethanol; Some but not all P85 chains were cleaved; also called reduced form of Lep-(ss)-P85(1)
In assay [6], B2 displayed a Kd of 16.4 nM, a koff of 0.00079 s⁻¹ and a kon of 49000 M⁻¹ s⁻¹.

B3: Lep-(ss)-P85(2.1) (ligand, mouse, UniProt P41160 22-167, looked up)
chain: B1 chain
modifications: Pluronic P85 chains on lysine amino groups through the DSP (disulfide) linker; lower degree of modification; positions not determined
notes: Mixture that includes unmodified leptin
In assay [6], B3 registered a Kd of 3.2 nM, a koff of 0.000355 s⁻¹ and a kon of 113000 M⁻¹ s⁻¹.

B4: Lep-(ss)-P85(1) (ligand, mouse, UniProt P41160 22-167, looked up)
chain: B1 chain
modifications: Pluronic P85 chains on lysine amino groups through the DSP (disulfide) linker; highly modified; positions not determined
notes: Mixture of unmodified leptin and leptin with 1 to several P85 chains
In assay [6], B4 had a Kd of 57.1 nM, a koff of 0.000642 s⁻¹ and a kon of 12000 M⁻¹ s⁻¹.

B5: Lep-(ss)-P85(2.3), 33 min (ligand, mouse, UniProt P41160 22-167, looked up)
chain: B1 chain
modifications: one Pluronic P85 chain on a lysine amino group through the DSP (disulfide) linker; position not determined
notes: HIC fraction collected at 33 min, said to contain leptin modified with one P85 chain; also called Lep-(ss)-P85(2.3) purified by HIC (33 minutes); HIC-purified Lep-(ss)-P85(2.3)
For B5, in assay [6], binding was put at a Kd of 1.21 nM, the koff was 0.000292 s⁻¹ and the kon turned out to be 311000 M⁻¹ s⁻¹.

B6: Leptin-POx conjugate (ligand, UniProt P41160 22-167, looked up)
chain: B1 chain
modifications: P(MeOx50-b-BuOx20) poly(2-oxazoline) chains on amino groups through the DSP linker; modification degree 6.0 per leptin monomer by TNBS assay
notes: SEC-purified mixture of forms with different numbers of POx chains, with some unmodified monomer and dimer; also called leptin-P(MeOx-b-BuOx); leptipox
In assay [5], B6 gave a Ka of 1.8e+07 M⁻¹, a Kd of 56 nM, a koff of 0.00073 s⁻¹ and a kon of 13000 M⁻¹ s⁻¹.

B7: Lep-(nc)-P85(2) (ligand, mouse, UniProt P41160 22-167, looked up)
chain: B1 chain
modifications: one Pluronic P85 chain on the N-terminal alpha amino group by reductive amination with mono-aldehyde-P85
notes: the rest is unmodified leptin; also called N-terminal modified Lep-(nc)-P85(2)
In assay [6], B7 returned a Kd of 3.8 nM, a koff of 0.000247 s⁻¹ and a kon of 77000 M⁻¹ s⁻¹.

B8: Lep-(ss)-P85(2.1) reduced (ligand, mouse, UniProt P41160 22-167, looked up)
chain: B1 chain
modifications: Pluronic P85 chains on lysine amino groups through the DSP linker, partly cleaved by 6 mM L-glutathione
notes: Lep-(ss)-P85(2.1) dialysed against 6 mM L-glutathione in PBS with 20% ethanol; also called reduced form of Lep-(ss)-P85(2.1)
In assay [6], B8 gave a Kd of 2.09 nM, a koff of 0.000407 s⁻¹ and a kon of 195000 M⁻¹ s⁻¹.
